Laboratory results from the Human Domainome abundance scans (Beltran et al. 2025).
± gives the uncertainty stated by the source.

B1: 3'-5' exoribonuclease 1, residues 65 to 114; numbered along this chain, Q8IV48 (parent)
chain: VYKEIAITNGCINRMSKEELRAKLSEFKLETRGVKDVLKKRLKNYYKKQK
B2: Protein C-ets-1, residues 55 to 135; numbered along this chain, P14921 (parent)
chain: GFTKEQQRLGIPKDPRQWTETHVRDWVMWAVNEFSLKGVDFQKFCMNGAALCALGKDCFLELAPDFVGDILWEHLEILQKE

Variants of: B1
Assay: abundance fitness (aPCA) (normalised: wild type 0, dead -1); higher = more abundant; growth selection in yeast, the domain comes from the species named
Conditions: Homo sapiens

Abundance fitness, by site and new letter:
Q49: E -0.192 ± 0.055; H -0.109 ± 0.032; Y -0.065 ± 0.068; S -0.19 ± 0.04; D -0.353 ± 0.061; V -0.182 ± 0.039; T -0.064 ± 0.06; R -0.221 ± 0.032; W -0.206 ± 0.041; A -0.164 ± 0.04; F -0.208 ± 0.076; K -0.083 ± 0.055; C -0.154 ± 0.05; L -0.099 ± 0.039; M -0.04 ± 0.068; I -0.074 ± 0.072; N -0.099 ± 0.077; G -0.306 ± 0.035
K50: I -0.157 ± 0.07; H -0.164 ± 0.059; R -0.089 ± 0.071; D -0.347 ± 0.074; E -0.13 ± 0.091; T -0.179 ± 0.06; G -0.299 ± 0.12; L -0.058 ± 0.09; A -0.159 ± 0.12; P -0.201 ± 0.32; M -0.216 ± 0.094; Q -0.123 ± 0.073; Y -0.162 ± 0.058; W -0.052 ± 0.12; N -0.06 ± 0.048; V -0.081 ± 0.23
K47: C -0.491 ± 0.05; F -0.572 ± 0.066; Y -0.533 ± 0.068; T -0.416 ± 0.047; H -0.409 ± 0.075; G -0.447 ± 0.037; M -0.34 ± 0.061; D -0.643 ± 0.081; L -0.381 ± 0.042; V -0.422 ± 0.04; N -0.155 ± 0.063; R -0.132 ± 0.035; I -0.415 ± 0.057; W -0.608 ± 0.043; Q -0.325 ± 0.059
K48: T -0.175 ± 0.055; S -0.158 ± 0.041; C -0.323 ± 0.049; Q -0.211 ± 0.059; R -0.072 ± 0.036; W -0.393 ± 0.043; V -0.432 ± 0.038; Y -0.279 ± 0.059; G -0.25 ± 0.035; I -0.611 ± 0.085; H -0.213 ± 0.064; L -0.264 ± 0.036; P -0.87 ± 0.061; A -0.187 ± 0.041; M -0.22 ± 0.057; F -0.51 ± 0.074; N -0.164 ± 0.06; D -0.329 ± 0.059

Variants of: B2
Assay: as above
Conditions: Homo sapiens

Abundance fitness of substitutions, site by site:
P15: A -0.351 ± 0.052; N -0.717 ± 0.21; G -0.845 ± 0.068; W -0.685 ± 0.085; Q -0.838 ± 0.19; E -0.974 ± 0.14; K -0.813 ± 0.25; L -0.281 ± 0.045; T -0.498 ± 0.067; M -0.286 ± 0.081; D -1.15 ± 0.45; I -0.064 ± 0.075; V -0.1 ± 0.038; S -1.02 ± 0.12; F -0.935 ± 0.14; C -0.254 ± 0.075; H -0.791 ± 0.36; Y -1.07 ± 0.38
T3: G -0.042 ± 0.041; I -0.005 ± 0.049; H -0.066 ± 0.094; R -0.082 ± 0.037; L -0.055 ± 0.041; V -0.063 ± 0.041; E 0.011 ± 0.081; Q -0.032 ± 0.067; F -0.029 ± 0.084; A -0.032 ± 0.042; C -0.075 ± 0.068; K 0.025 ± 0.091; W -0.031 ± 0.075; Y -0.206 ± 0.1; P -0.177 ± 0.045; M -0.028 ± 0.072; N -0.121 ± 0.081
G1: E -0.042 ± 0.068; R -0.191 ± 0.067; V -0.108 ± 0.055; M -0.186 ± 0.16; D 0.074 ± 0.062; I -0.077 ± 0.16; A -0.091 ± 0.076; C -0.21 ± 0.11; S -0.039 ± 0.065; L -0.157 ± 0.092; N 0.143 ± 0.27; Y -0.114 ± 0.2; W -0.248 ± 0.083; T -0.262 ± 0.17; K 0.049 ± 0.24
K4: E 0.008 ± 0.059; N 0.024 ± 0.11; Y -0.039 ± 0.092; P -0.325 ± 0.068; S -0.055 ± 0.043; I 0.037 ± 0.11; T -0.071 ± 0.066; V -0.098 ± 0.036; C -0.108 ± 0.065; M -0.043 ± 0.053; Q -0.031 ± 0.054; W -0.207 ± 0.062; A -0.178 ± 0.051; F 0.038 ± 0.12; L -0.085 ± 0.042; G -0.054 ± 0.038; H -0.148 ± 0.076; R -0.071 ± 0.036
P12: D -0.371 ± 0.067; T -0.799 ± 0.16; M -0.747 ± 0.14; H -0.379 ± 0.12; S -0.28 ± 0.047; E -0.413 ± 0.086; L -0.567 ± 0.064; F -0.606 ± 0.095; K -0.419 ± 0.14; C -0.305 ± 0.069; Q -0.814 ± 0.12; R -0.709 ± 0.058; A -0.46 ± 0.05; N -0.47 ± 0.15; V -0.763 ± 0.065; W -0.706 ± 0.093; G -0.427 ± 0.034
F2: I -0.355 ± 0.11; Y -0.161 ± 0.076; Q -0.522 ± 0.15; H -0.43 ± 0.16; D -0.143 ± 0.09; S -0.365 ± 0.048; N -0.141 ± 0.12; M -0.238 ± 0.097; E -0.345 ± 0.1; G -0.272 ± 0.04; C -0.408 ± 0.08; R -0.298 ± 0.052; V -0.289 ± 0.047; L -0.343 ± 0.046; T -0.23 ± 0.12; P -0.398 ± 0.074; K -0.232 ± 0.14; A -0.24 ± 0.057
I11: L -0.013 ± 0.026; N -0.288 ± 0.074; W -0.078 ± 0.062; Y -0.207 ± 0.047; S -0.344 ± 0.039; C -0.108 ± 0.1; P -0.465 ± 0.056; R -0.132 ± 0.038; D -0.647 ± 0.1; E -0.773 ± 0.098; V -0.09 ± 0.026; M -0.043 ± 0.05; T -0.205 ± 0.051; G -0.583 ± 0.043; A -0.326 ± 0.033; K -0.695 ± 0.087; H -0.364 ± 0.13
G10: S -0.062 ± 0.034; K -0.028 ± 0.075; V -0.2 ± 0.032; I -0.187 ± 0.096; R -0.056 ± 0.033; C -0.15 ± 0.044; A -0.057 ± 0.04; N -0.135 ± 0.081; E -0.067 ± 0.045; L -0.244 ± 0.038; D 0.015 ± 0.058; P -0.263 ± 0.035; Q 0.008 ± 0.051; H -0.072 ± 0.09; Y -0.33 ± 0.07; T -0.103 ± 0.047; W -0.364 ± 0.048
K13: C -0.04 ± 0.052; F -0.152 ± 0.057; E -0.084 ± 0.053; T -0.064 ± 0.062; I -0.022 ± 0.088; R -0.077 ± 0.034; D -0.054 ± 0.09; M -0.086 ± 0.11; V -0.1 ± 0.049; Q -0.059 ± 0.067; H -0.04 ± 0.084; W -0.117 ± 0.05; P 0.023 ± 0.057; N 0.008 ± 0.11; Y -0.249 ± 0.11; L -0.065 ± 0.043; G -0.088 ± 0.034
Q6: V -0.096 ± 0.027; T -0.102 ± 0.062; C -0.113 ± 0.053; W -0.1 ± 0.044; F -0.075 ± 0.088; K -0.143 ± 0.08; E -0.164 ± 0.047; S -0.005 ± 0.04; R -0.041 ± 0.031; G -0.101 ± 0.028; A 0.019 ± 0.043; I 0.034 ± 0.084; H -0.235 ± 0.047; M 0.024 ± 0.066; N -0.136 ± 0.2; L -0.006 ± 0.043; D -0.277 ± 0.063; Y -0.058 ± 0.078; P -0.389 ± 0.062
L9: Y -0.158 ± 0.12; K -0.139 ± 0.082; A -0.182 ± 0.041; G -0.195 ± 0.028; R -0.017 ± 0.039; Q -0.165 ± 0.064; N -0.137 ± 0.11; T -0.082 ± 0.048; M -0.066 ± 0.057; E -0.261 ± 0.055; V -0.126 ± 0.036; W -0.192 ± 0.043; F -0.2 ± 0.068; I -0.178 ± 0.086; P -0.32 ± 0.072; C -0.088 ± 0.089; H -0.216 ± 0.092
E5: W -0.186 ± 0.066; A -0.062 ± 0.045; S -0.245 ± 0.046; M -0.018 ± 0.059; R -0.132 ± 0.035; C -0.129 ± 0.077; T -0.117 ± 0.069; V -0.05 ± 0.039; L -0.108 ± 0.044; F -0.088 ± 0.07; Y -0.045 ± 0.1; I -0.105 ± 0.098; Q -0.123 ± 0.061; D -0.216 ± 0.085; G -0.253 ± 0.028; H -0.087 ± 0.095; K -0.183 ± 0.06
Q7: S -0.069 ± 0.039; E 0.089 ± 0.052; A -0.055 ± 0.031; D 0 ± 0.075; R -0.034 ± 0.031; W -0.133 ± 0.048; G -0.047 ± 0.029; T -0.06 ± 0.047; K 0.074 ± 0.068; N -0.026 ± 0.13; C -0.256 ± 0.06; P -0.294 ± 0.048; F -0.121 ± 0.084; M 0.04 ± 0.057; L -0.02 ± 0.034; I 0.062 ± 0.086; V -0.028 ± 0.033
R16: G -0.108 ± 0.034; D -0.147 ± 0.052; C -0.04 ± 0.082; E -0.01 ± 0.06; F -0.024 ± 0.066; A -0.009 ± 0.039
D14: R -0.684 ± 0.036; A -0.533 ± 0.034; T -0.62 ± 0.05; W -0.661 ± 0.047; E -0.172 ± 0.04; Q -0.356 ± 0.045; M -0.52 ± 0.055; C -0.152 ± 0.061; S -0.339 ± 0.038; H -0.155 ± 0.044; Y -0.407 ± 0.046; P -0.813 ± 0.068; G -0.844 ± 0.048; N -0.122 ± 0.061; K -0.547 ± 0.071; L -0.552 ± 0.033; V -0.602 ± 0.033; I -0.76 ± 0.11; F -0.443 ± 0.052
R8: W -0.169 ± 0.043; T -0.111 ± 0.071; G -0.112 ± 0.03; E -0.074 ± 0.048; I -0.17 ± 0.12; P -0.132 ± 0.047; K -0.062 ± 0.061; H -0.095 ± 0.058; C -0.154 ± 0.052; Y -0.212 ± 0.066; D -0.093 ± 0.066; N -0.16 ± 0.078; L -0.086 ± 0.039; S -0.136 ± 0.05; F -0.091 ± 0.074; Q -0.083 ± 0.06; M -0.138 ± 0.059; V -0.122 ± 0.031
